A value given as a limit tells only on which side of the number the result lay.

Experiment [1] concerns the target T1, CDK4/cyclin D1 complex (UniProt P11802 1-303; P24385 1-295).
T1 construct: also called cyclin D1/CDK4 complex
In words: inhibition constant from in vitro kinase assay (Sf9 extract, Gst-Rb substrate).

For experiment [2], the target named is T1, CDK4/cyclin D1 complex. In words: cell-based or functional assay.
The target of experiment [3] is CDK2/cyclin A complex (UniProt P24941 1-298). In words: cell-based or functional assay.
Experiment [4] deals with CDK2/cyclin E complex (UniProt P24941 1-298). Nature of the experiment: cell-based or functional assay.
The target of experiment [5] is cdc2/cyclin B complex (UniProt P06493 1-297). Nature of the experiment: cell-based or functional assay.
Sequence of cdc2/cyclin B complex (P06493 whole entry, one chain of several): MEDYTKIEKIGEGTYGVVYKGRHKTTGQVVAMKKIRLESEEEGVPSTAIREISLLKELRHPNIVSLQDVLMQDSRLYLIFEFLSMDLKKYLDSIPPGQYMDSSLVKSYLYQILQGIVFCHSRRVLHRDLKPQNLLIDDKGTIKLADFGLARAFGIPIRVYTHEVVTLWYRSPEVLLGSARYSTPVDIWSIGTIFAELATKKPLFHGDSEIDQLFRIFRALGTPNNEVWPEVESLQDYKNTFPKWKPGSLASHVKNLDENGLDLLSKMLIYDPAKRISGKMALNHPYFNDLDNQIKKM

T1 sequence (P11802 whole entry, chain 1 of 2): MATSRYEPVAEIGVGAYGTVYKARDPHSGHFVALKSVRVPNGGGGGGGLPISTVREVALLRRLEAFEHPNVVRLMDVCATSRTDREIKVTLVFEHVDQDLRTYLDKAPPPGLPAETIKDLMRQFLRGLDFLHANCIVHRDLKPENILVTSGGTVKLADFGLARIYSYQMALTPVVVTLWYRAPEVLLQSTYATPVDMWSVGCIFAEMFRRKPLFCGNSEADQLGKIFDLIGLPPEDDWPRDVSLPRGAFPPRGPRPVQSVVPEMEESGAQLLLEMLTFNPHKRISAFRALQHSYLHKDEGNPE
T1 sequence (P24385 whole entry, chain 2 of 2): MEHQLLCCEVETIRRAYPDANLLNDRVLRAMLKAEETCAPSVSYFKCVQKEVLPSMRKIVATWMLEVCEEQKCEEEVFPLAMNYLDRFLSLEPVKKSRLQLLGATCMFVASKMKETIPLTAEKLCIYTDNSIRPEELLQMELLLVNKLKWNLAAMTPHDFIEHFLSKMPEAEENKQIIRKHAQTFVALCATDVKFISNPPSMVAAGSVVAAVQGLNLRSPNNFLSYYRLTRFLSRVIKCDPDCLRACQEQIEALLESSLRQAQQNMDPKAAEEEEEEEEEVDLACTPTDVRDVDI

B1: p16 (other, human, UniProt P42771 1-156, looked up)
chain: MEPAAGSSMEPSADWLATAAARGRVEEVRALLEAGALPNAPNSYGRRPIQVMMMGSARVAELLLLHGAEPNCADPATLTRPVHDAAREGFLDTLVVLHRAGARLDVRDAWGRLPVDLAEELGHRDVARYLRAAAGGTRGSNHARIDAAEGPSDIPD
notes: also called p16^Ink4/MTS1; p16^INK4A
Regarding B1, in experiment [1], the affinity corresponds to a Ki of 0.075 µM. Moreover, the “IC50 of in vitro kinase assay (32P incorporation into Gst-Rb)” value was 0.25 µM in experiment [2], more than 0.5 µM in experiment [3], more than 0.5 µM in experiment [4] and more than 0.5 µM in experiment [5].

Source of the values: patent US20020068706A1 (GPC BIOTECH, published 2002).
